These results are taken from patent US12024544B2, “CCN3 and CCN3 peptides and analogs thereof for therapeutic use” (Rosalind Franklin University of Medicine & Science, priority 2010, dated 2024).

“Also recorded” adds a separate entry of the source.

One assay concerns CCN2 receptor. In words: adhesion of mesangial cells to CCN2 coated plates. The format is cell-based, rat. The conditions noted are these: 27 nM, rodent mesangial cells. The text has this: The peptides selected above, and shown in FIG. 5, were synthesized and tested in the three different in vitro assays constructed to model fibrosis, or fibrosis-related pathology in vivo for anti-fibrotic activity. These assays have been used extensively by us and by others, and are highly predictive of related responses in vivo, including those occurring in humans. One in vitro assay, i.e., of cell adhesion in vitro was used. There is a requirement for adhesion in wound healing and fibrosis, with cells responding to the binding of CCN2 to their receptors for other critical activities. Also alteration of cell attachment and receptor binding is implicated in other non-fibrotic diseases, previously named in this application. For this adhesion assay, a well of a culture plate was coated with CCN2 protein and then rat mesangial cells were added for a defined period. […] After a standard period of incubation, the cells are washed to remove non-attached cells. These adherent cells are then removed and counted to determine the percent of the total cells that adhered. The ability of each peptide to block this binding was examined by preincubating cells with the peptide of interest. Controls were used for comparison without CCN2 coating.

The subject of the next assay is human skin fibroblasts. In words: human skin fibroblast proliferation. The format is cell-based. The source says: (§1) To test this we used a cell culture model of skin healing/scarring, which employed the use of primary human skin fibroblasts derived from foreskins collected post circumcision. These have been used extensively in the past to grown in culture and treated with agents that are known to drive wound healing and or scarring. We were also interested in a rare form of skin fibrosis/scarring that can lead to systemic disease and death known as nephrogenic systemic fibrosis (NSF). NSF is a complication of NMR diagnostics in renal impaired patients, where gadolinium (GAD), a heavy metal, is used as a contrast agent, but in some cases appears to deposit in skin. Although the mechanism for development of skin fibrosis and subsequent systemic disease is not yet completely understood, we have developed a model that has allowed elucidation of the probable pathway to skin fibrosis (Bhagavathula, N., M. K. Dame, M. DaSilva, W. Jenkins, M. N. Aslam, P. Perone and J. Varani (2010)). “Fibroblast response to gadolinium: role for platelet-derived growth factor receptor.” Invest Radiol 45(12): 769-777). This disease is characterized as a hyperproliferative disease, and in our model it was shown that PDGF produced by resident skin fibroblasts are stimulated by GAD to increase their production of PDGF which acts to induce proliferation and the increased production of MMPs, regulators of ECM breakdown and thus turnover, including the major MMP, MMP-1. At the same time tissue inhibitors of MMPs (TIMPs) are also affected by exposure to GAD. […] It appears that local fibroblasts then respond to this increased TGF-beta by increasing their production of ECM, including predominantly collagen type 1.
(§2) We examined the role of CCN3 and CCNp in fibroproliferative/fibrotic responses in human dermal fibroblasts exposed to Omniscan, one of the gadolinium-based contrast agents associated with development of nephrogenic systemic fibrosis. These studies were carried out as we have previously described (Riser, B. L., N. Bhagavathula, P. Perone, K. Garchow, Y. Xu, G. J. Fisher, F. Najmabadi, D. Attili and J. Varani (2012)). “Gadolinium-induced fibrosis is counter-regulated by CCN3 in human dermal fibroblasts: a model for potential treatment of nephrogenic systemic fibrosis.” J Cell Commun Signal 6(2): 97-105.). In our studies, human dermal fibroblasts were exposed to Omniscan; or to PDGF and TGF-β1 as controls. Cellular proliferation was assessed along with MMP-1 (by ELISA and gelatin zymography), TIMP-1 (by ELISA) and COL1 (by ELISA) in the absence and presence of CCN3 and CCNp. CCN3 and CCNp38 was added to cells at 10 nM concentration and at the same time as PDGF. In parallel, CCN3 production was assessed in control and Omniscan-treated cells. In most case the results shown (each bar) are the mean of 3-5 separate experiments, using fibroblasts from different donors. CCN3 was produced in our laboratory from the human embryonic kidney cell line (HEK-293) transfected with the complete human CCN3 gene, and producing an approximate 55 kDa, full-length CCN3 product. A second source of CCN3 was obtained from Pepro Tech Corporation (Rocky Hill, NJ) and is produced in a prokaryote cell line.
(§3) Next we created and tested for efficacy, additional CCNp including those with the cysteines intact (native sequence) from CCNp37 and CCNp38 and those that were modified by either shortening the peptide by 1 or 2 amino acids or lengthening by one amino acid. These agents were added to human skin fibroblasts in increasing concentrations from 1 nM to 100 nM and compared to the equal concentration of CCN3 (SEQ. ID. NO: 67). They were added just prior to the addition of either TGF-beta or PDGF, depending on the experiment.

The next assay concerns MMP-1. Kind of assay: MMP-1 production by human skin fibroblasts. The format is cell-based.
Source text: as §1, §2, §3

The subject of a further assay is pro-collagen type 1. Kind of assay: pro-collagen type 1 production by human skin fibroblasts. The format is cell-based. The following applies: TGF-beta, 10 nM, FIG. 21. The source says: To test this we used a cell culture model of skin healing/scarring, which employed the use of primary human skin fibroblasts derived from foreskins collected post circumcision. These have been used extensively in the past to grown in culture and treated with agents that are known to drive wound healing and or scarring. We were also interested in a rare form of skin fibrosis/scarring that can lead to systemic disease and death known as nephrogenic systemic fibrosis (NSF). NSF is a complication of NMR diagnostics in renal impaired patients, where gadolinium (GAD), a heavy metal, is used as a contrast agent, but in some cases appears to deposit in skin. Although the mechanism for development of skin fibrosis and subsequent systemic disease is not yet completely understood, we have developed a model that has allowed elucidation of the probable pathway to skin fibrosis (Bhagavathula, N., M. K. Dame, M. DaSilva, W. Jenkins, M. N. Aslam, P. Perone and J. Varani (2010)). “Fibroblast response to gadolinium: role for platelet-derived growth factor receptor.” Invest Radiol 45(12): 769-777). This disease is characterized as a hyperproliferative disease, and in our model it was shown that PDGF produced by resident skin fibroblasts are stimulated by GAD to increase their production of PDGF which acts to induce proliferation and the increased production of MMPs, regulators of ECM breakdown and thus turnover, including the major MMP, MMP-1. At the same time tissue inhibitors of MMPs (TIMPs) are also affected by exposure to GAD. […]
We examined the role of CCN3 and CCNp in fibroproliferative/fibrotic responses in human dermal fibroblasts exposed to Omniscan, one of the gadolinium-based contrast agents associated with development of nephrogenic systemic fibrosis. […] Cellular proliferation was assessed along with MMP-1 (by ELISA and gelatin zymography), TIMP-1 (by ELISA) and COL1 (by ELISA) in the absence and presence of CCN3 and CCNp. […] In parallel, CCN3 production was assessed in control and Omniscan-treated cells. […]

The subject of the next assay is BTBR Ob/Ob mouse. Kind of assay: BTBR Ob/Ob mouse as model of liver disease. The format is in vivo. The conditions noted are these: 8 weeks of treatment. The procedure:
This was carried out using the BTBR Ob/Ob mouse strain that has a defective leptin receptor that results in increased appetite. As a result it rapidly gains weight over the control strain and becomes hyperglycemic at about one month of age, going on to develop renal disease resembling that in humans. This is regarded by some to be the rodent model best mirroring renal disease in humans as a complication of diabetes. Animals were treated with either rCCN3 (SEQ. ID. NO: 67) or CCNp38 (SEQ. ID. NO: 38) beginning at 9 weeks of age, when early renal disease has been documented. The disease was allowed to develop for 9 weeks, then treatment started. Mice were treated 3 times per week for 8 weeks. At 17 weeks, blood and urine were collected, and animals sacrificed with organ samples collected. The effect of treatment with either CCN3 (2 concentrations, 2 or 20× the circulating amounts) or mimic peptide (CCNp38, 2 concentrations, 20 or 200× the equivalent molar circulating concentration of CCN3) was tested. Assays to determine the effect of CCN3 or peptide on expression of target fibrosis genes and clinical pathology were determined using methods as previously described (Riser, Amer J Pathology 2009) and (McIntosh, L M, et al., Selective CCR2-targeted macrophage depletion ameliorates experimental mesangioproliferative glomerulonephritis, Clinical and Experimental Immunology, 2008, 155, 295-303).
Since a common complication of diabetes is fatty liver, hepatitis, NASH, and in some cases liver fibrosis, we used the BTBR Ob/Ob mouse experiments described above as a model of human liver disease to examine the possibility that CCN3 or more particularly CCNp peptides might provide a treatment to prevent, treat, or reverse the liver disease described above.

B1: CCN3: full-length recombinant human CCN3 protein (SEQ. ID. No. 67), commercial (Pepro Tech) or made in HEK-293 (protein)
chain: MQVAATQRCPPQCPGRCPATPPTCAPGVRAVLDGCSCCLVCARQRGESCSDLEPCDESSGLYCDRSADPSNQTGICTAVEGDNCVFDGVIYRSGEKFQPSCKFQCTCRDGQIGCVPRCQLDVLLPEPNCPAPRKVEVPGECCEKWICGPDEEDSLGGLTLAAYRPEATLGVEVSDSSVNCIEQTTEWTACSKSCGMGFSTRVTNRNRQCEMLKQTRLCMVRPCEQEPEQPTDKKGKKCLRTKKSLKAIHLQFKNCTSLHTYKPRFCGVCSDGRCCTPHNTKTIQAEFQCSPGQIVKKPVMVIGTCTCHTNCPKNNEAFLQELELKTTRGKM
Regarding B1, the “inhibition of cellular adhesion to CCN2 coated plates” value with CCN2 receptor is listed as “some inhibition”. For the same molecule, the “inhibition of PDGF-stimulated proliferation, comparison of modifications” value with human skin fibroblasts (1 nM to 100 nM, FIGS. 22-24) is given as “dose-dependent efficacy”. The “reduction in PDGF-stimulated proliferation” value was “slightly decreased proliferation” in the assay on human skin fibroblasts (1 nM, FIG. 22); 33% in the assay with human skin fibroblasts (10 nM, FIG. 23); 46% with human skin fibroblasts (100 nM, FIG. 24). Moreover, the “block of PDGF-stimulated fibroblast proliferation” value in the assay with human skin fibroblasts (PDGF, 10 nM, FIG. 15) is reported as “this stimulation is blocked”. Besides, the “effect on baseline cell growth” value in the assay on human skin fibroblasts (TGF-beta (does not stimulate proliferation), FIG. 16) is “neither CCN3 (SEQ. ID. No. 67) nor CCNp38-3 (Seq. ID. No. 56) has an effect on baseline cell growth”. For the same molecule, the “block of PDGF stimulated MMP-1 production” value in the assay on MMP-1 (1 nM, FIG. 25) was “able to block little or no MMP-1 production”. For the same molecule, the “reduction in PDGF stimulated MMP-1 production” value with MMP-1 (10 nM, FIG. 26) came to 27%; with MMP-1 (100 nM, FIG. 27), 30%. In addition, in the assay with MMP-1 (PDGF, 10 nM, FIG. 17), the “block of PDGF-induced increase in MMP-1 activity” value is on record as “able to block that increase”. In the assay on MMP-1 (TGF-beta (no stimulating effect), FIG. 18), the “effect on MMP-1 with TGF-beta” value is recorded as “no effect”. Also, the “block of TGF-beta-induced increase in pro-collagen production” value in the assay on pro-collagen type 1 was “completely block the increase”. Moreover, the “effect on increased liver weight” value in the assay with BTBR Ob/Ob mouse (FIG. 41) is recorded as “slightly reduces this increase”. For the same molecule, in the assay on BTBR Ob/Ob mouse (liver, two doses, FIG. 42), the “effect on increased liver mRNA levels for CCN2” value is “greatly reduces or blocks the increase in a dose-dependent manner”. The “effect on increased liver mRNA levels for Col1A2” value with BTBR Ob/Ob mouse (liver, two doses, FIG. 43) is reported as “dose-dependently reduced, or blocked the increase in collagen expression; also recorded: reduced”.
